Target: T1, C-terminally FLAG-tagged full length UCH-L5 (mouse, UniProt Q9WUP7 1-329)
T1 construct: range 1-329; Co-expressed in HEK-293 cells and immunoprecipitated with an anti-FLAG monoclonal; also called UCH-L5 FLAG
T1 sequence: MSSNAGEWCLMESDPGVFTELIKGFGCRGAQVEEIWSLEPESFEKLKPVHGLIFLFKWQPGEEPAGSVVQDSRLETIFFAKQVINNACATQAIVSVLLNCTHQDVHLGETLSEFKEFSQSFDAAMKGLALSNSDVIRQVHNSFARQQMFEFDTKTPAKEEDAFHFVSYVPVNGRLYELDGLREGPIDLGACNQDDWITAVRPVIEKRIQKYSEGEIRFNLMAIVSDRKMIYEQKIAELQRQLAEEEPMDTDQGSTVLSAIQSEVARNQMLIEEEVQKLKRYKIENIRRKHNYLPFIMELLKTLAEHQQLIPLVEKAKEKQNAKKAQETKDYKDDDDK
Assay: co-immunoprecipitation: anti-FLAG IP, anti-HA western blot, HEK-293 lysates
Method: C-terminally FLAG®-tagged UCH-L5 or UCH-L5ΔC were co-expressed in human embryonic kidney (HEK)—293 cells with N-terminally HA-tagged Smad proteins.
Referring to FIG. 3, HEK-293 cells were transfected with 20 μg of DNA construct directing the expression of UCH-L5 FLAG or UCH-L5ΔC FLAG and 20 μg of DNA construct expressing one of: HA-Smad 3₁₋₃₈₅; HA-Smad3₁₋₂₄₀; or HA-Smad3₁₋₄₄. Lysates of the cells were prepared by a standard detergent lysis method, using 1% Triton X-100 and then immunoprecipitated with an anti-FLAG monoclonal. The precipitated proteins were then subjected to SDS-PAGE.
For comparison, a blot of the same samples was then probed with a haemagglutinin-specific 1st antibody.

B1: N-terminally HA-tagged Smad3 residues 1-144 (other)
chain: MSSILPFTPPIVKRLLGWKKGEQNGQEEKWCEKAVKSLVKKLKKTGQLDELEKAITTQNVNTKCITIPRSLDGRLQVSHRKGLPHVIYCRLWRWPDLHSHHELRAMELCEFAFNMKKDEVCVNPYHYQRVETPVLPPVLVPRHT
notes: not shown: haemagglutinin (HA) tag, N-terminal
B1: no binding.
